Results reported in the supplement of paper PMC12042874.
± gives the uncertainty stated by the source.

Assay: amyloid nucleation score (Sup35N fusion, yeast selection) (log enrichment); library NNK1; higher = more nucleation; inactive = no reads after selection
How it was run: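 Peptides of 20 random codons fused to Sup35N were expressed in psi-negative yeast, induced 24 hours with 100 μM copper sulfate, then grown 7 days at 30°C on medium lacking adenine and uracil. Input and output plasmid inserts were Illumina-sequenced. Nucleation score is the DiMSum log enrichment of output over input reads, centred on the mode score of non-aggregating sequences, excluding sequences with under 100 input reads. Random libraries had three technical output replicates.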
YGDGMGPWCYCWAFAEPRRS showed an amyloid nucleation score of 0.114 ± 1.1.
For YGFSNYRMIVQLYNLFSMYD, the amyloid nucleation score was 3.04 ± 0.21.
YGGLEVSLGALQNVGVKPYT gave an amyloid nucleation score of -0.189 ± 1.1.
With YGHLDPFTKLWSLWGIIMNW the amyloid nucleation score was “inactive”.
Substance YGHLTAGGCWSGQTNNARLG has an amyloid nucleation score of -0.488 ± 0.9.
In the case of YGISVMIYDRPAISACQIKH, the amyloid nucleation score is reported as 2.71 ± 0.11.
YGLPLWCNMCSRSANRC showed an amyloid nucleation score of 0.365 ± 0.48.
In the case of YGRATIWNYKSSMDGPKNGK, the amyloid nucleation score is reported as “inactive”.
Work on YGRSP yielded an amyloid nucleation score of 0.597 ± 0.46.
For YGTNRSWGDMEKISSHKRCW, the amyloid nucleation score was -0.321 ± 0.34.
Work on YHCLWGFVGVLKSDSLRDRR yielded an amyloid nucleation score of 0.602 ± 0.38.
YHDVGSAVRMLYQMGPKRVF gave an amyloid nucleation score of -0.442 ± 1.4.
Work on YHILGCKIVNVIDTALGPWL yielded an amyloid nucleation score of 5.8 ± 0.06.
YHIMGFSSYGGVVRWMSS gave an amyloid nucleation score of -0.312 ± 0.36.
YHNFNSV showed an amyloid nucleation score of 0.164 ± 0.34.
Work on YHSWECLHRTANIIWEYFRD yielded an amyloid nucleation score of -0.019 ± 0.81.
For YIDEIY, the amyloid nucleation score was -0.759 ± 0.35.
For YIDVFVSRVLHSGFERSDVV, the amyloid nucleation score was 0.745 ± 0.2.
With YIHDQIIALFKQDLFSGSLH the amyloid nucleation score was 0.961 ± 0.69.
YIKAGLFGCYMVAGGAYNPV gave an amyloid nucleation score of 1.58 ± 0.31.
Work on YILACAKVTEDPVSVSMKCA yielded an amyloid nucleation score of -0.278 ± 0.74.
For YILKGNYLYRRVQLDLRTRR, the amyloid nucleation score was -0.244 ± 0.28.
In the case of YILSSLPFRHLLGVNICFTA, the amyloid nucleation score is reported as -0.364 ± 0.31.
For YIMFDVLLTDKRPSSSVCSC, the amyloid nucleation score was 3.41 ± 0.069.
For YIQLVI, the amyloid nucleation score was -0.279 ± 0.32.
YIVPQLT showed an amyloid nucleation score of 1.47 ± 0.81.
YIWAFLVGFVLTHYCSPHPD showed an amyloid nucleation score of -1.07 ± 0.68.
With YIYNWRYN the amyloid nucleation score was 1.71 ± 0.54.
YKANCVETLSWSFGHNFFLR gave an amyloid nucleation score of -0.481 ± 0.49.
YKASG gave an amyloid nucleation score of 0.794 ± 1.1.
With YKCVYFGMETAVGNTAQERP the amyloid nucleation score was 0.861 ± 0.77.
With YKHWLYKLSCLEARSEYCGF the amyloid nucleation score was 0.444 ± 1.1.
Work on YKSNKWSPSQKRKG yielded an amyloid nucleation score of -1.37 ± 2.7.
YKSSILPTEFGFACKPWGHL showed an amyloid nucleation score of 0.3 ± 0.55.
Work on YKSVRSVVWWCLRNSLHFVW yielded an amyloid nucleation score of 1.91 ± 0.6.
Substance YKVNNFKTFSLWNMFLDSNC has an amyloid nucleation score of 4.47 ± 0.064.
With YLAKISSHDPGIAMMEMTGR the amyloid nucleation score was 0.315 ± 0.35.
For YLAQL, the amyloid nucleation score was 0.558 ± 0.43.
With YLAWNM the amyloid nucleation score was 1.8 ± 0.34.
Substance YLCPVRDFNGLYGLVFM has an amyloid nucleation score of -0.756 ± 1.7.
YLFGGSWDCGLYISGIPCWS showed an amyloid nucleation score of 1 ± 0.48.
With YLFTYRRVTWGSTLQS the amyloid nucleation score was 1.65 ± 0.48.
In the case of YLIDSSTPDFR, the amyloid nucleation score is reported as 0.314 ± 0.3.
In the case of YLLPEPKQCVSPE, the amyloid nucleation score is reported as 0.625 ± 0.5.
Work on YLLTHQRKTSLQE yielded an amyloid nucleation score of 1.06 ± 0.97.
Work on YLPVYNY yielded an amyloid nucleation score of 0.487 ± 0.65.
For YLQEWRIGRVGCVGFTCRCR, the amyloid nucleation score was 0.279 ± 0.45.
Work on YLRFTV yielded an amyloid nucleation score of 2.57 ± 0.27.
With YLRKIRVLNMGAAAEKALLG the amyloid nucleation score was 0.641 ± 0.68.
Substance YLRLKKMSVGVWGVIDRCLV has an amyloid nucleation score of 0.995 ± 0.51.
For YLRPGCSSVRSNATMGNSYL, the amyloid nucleation score was 0.641 ± 0.45.
For YLWLYVLSRTWVFNKHPSPI, the amyloid nucleation score was -0.543 ± 0.41.
YMCHKRAFV gave an amyloid nucleation score of 3.32 ± 0.12.
In the case of YMDVTGDVK, the amyloid nucleation score is reported as -0.067 ± 0.85.
YMGHDC gave an amyloid nucleation score of 0.011 ± 0.21.
Work on YMNIVDVLAWGDRWVLLVWK yielded an amyloid nucleation score of 0.425 ± 0.48.
YMNNRLRWNRRHPYLSCFMS showed an amyloid nucleation score of 1.1 ± 0.94.
With YMNTFVIRSMHSLLNGYAFS the amyloid nucleation score was 0.429 ± 0.88.
Substance YMRRVLPRCHPIWNGFPFAR has an amyloid nucleation score of 0.254 ± 0.93.
YMTWL gave an amyloid nucleation score of 0.676 ± 0.44.
For YMVYILSVCDLRFLWTRSGG, the amyloid nucleation score was -0.053 ± 0.49.
With YNCFMFAMFARSDSYMGIAS the amyloid nucleation score was 0.597 ± 0.26.
Work on YNDMVICSTTDGTLSYCRHF yielded an amyloid nucleation score of 0.329 ± 0.26.
In the case of YNEERGCSAC, the amyloid nucleation score is reported as -0.209 ± 0.33.
Substance YNFFGCVCDAPPPKCLVYFM has an amyloid nucleation score of 7.596 ± 0.075.
YNGGLRVMICLPECLLFSLI gave an amyloid nucleation score of -0.246 ± 0.49.
YNGVCSNW gave an amyloid nucleation score of 0.13 ± 0.48.
YNHIEFGWCLLVGFVMRKSR showed an amyloid nucleation score of 3.53 ± 0.12.
YNIVMMDS showed an amyloid nucleation score of 0.108 ± 0.36.
YNLRMDGVCGTVLRYVVEGR showed an amyloid nucleation score of -0.403 ± 1.4.
